Data: publication PMC7948407 (2020)

T1: SAT C-terminal C10 peptide C-terminal 10 residues (Haemophilus influenzae, UniProt P43886)
T1 chain: GIDDGMNLNI

T2: SAT C-terminal C10 peptide C-terminal 10 residues (Salmonella typhimurium, UniProt P29847)
T2 chain: HHTFEYGDGI

B1: Cysteine synthase (HiCS) (protein)
chain: MAIYADNSYSIGNTPLVRLKHFGHNGNVVVKIEGRNPSYSVKCRIGANMVWQAEKDGTLTKGKEIVDATSGNTGIALAYVAAARGYKITLTMPETMSLERKRLLCGLGVNLVLTEGAKGMKGAIAKAEEIVASDPSRYVMLKQFENPANPQIHRETTGPEIWKDTDGKVDVVVAGVGTGGSITGISRAIKLDFGKQITSVAVEPVESPVISQTLAGEEVKPGPHKIQGIGAGFIPKNLDLSIIDRVETVDSDTALATARRLMAEEGILAGISSGAAVAAADRLAKLPEFADKLIVVILPSASERYLSTALFEGIEG
B2: Cysteine synthase (StCS) (protein)
chain: SKIYEDNSLTIGHTPLVRLNRIGNGRILAKVESRNPSFSVKCRIGANMIWDAEKRGVLKPGVELVEPTSGNTGIALAYVAAARGYKLTLTMPETMSIERRKLLKALGANLVLTEGAKGMKGAIQKAEEIVASDPQKYLLLQQFSNPANPEIHEKTTGPEIWEDTDGQVDVFISGVGTGGTLTGVTRYIKGTKGKTDLITVAVEPTDSPVIAQALAGEEIKPGPHKIQGIGAGFIPGNLDLKLIDKVVGITNEEAISTARRLMEEEGILAGISSGAAVAAALKLQEDESFTNKNIVVILPSSGERYLSTALFADLFTEKELQQ

What was measured:
[1] = biological target: T1, SAT C-terminal C10 peptide C-terminal …; experiment: PLP fluorescence titration
[2] = biological target: T2, SAT C-terminal C10 peptide C-terminal …; experiment: PLP fluorescence titration

| Binder | Kd [1] [µM] | Kd [2] [µM] |
| --- | --- | --- |
| B1 | 3.4 |  |
| B2 |  | 0.29 |
